Reference: publication doi:10.1101/2023.07.25.550521

Assays:
[1] = biological target: MADD (DENN/MADD, RAB3-GEP) (UniProt Q8WXG6); experiment: GFP-Trap co-IP, HA blot; details: reference: wild type; sites T86
RAB-GDI1 = RAB-GDI1 (UniProt P31150); experiment: GFP-Trap co-IP, RAB-GDI1 blot; details: reference: wild type; sites T86

binding against the reference [1]: stronger
binding against the reference (RAB-GDI1): stronger
Substance: RAB3A (from UniProt P20336) T86A
